Measurements as given in paper PMC7300015.

Experiments:
[1] = target: HKU2 spike glycoprotein ectodomain (residues 1-1066) (Rhinolophus bat coronavirus HKU2); experiment: cryo-EM structure
[2] = target: SADS-CoV spike glycoprotein ectodomain (residues 1-1068) (swine acute diarrhea syndrome coronavirus (SADS-CoV)); experiment: cryo-EM structure

HKU2 spike glycoprotein ectodomain (residues 1-1066) (domain or fragment)
stoichiometry N [1]: 3

SADS-CoV spike glycoprotein ectodomain (residues 1-1068) (domain or fragment)
stoichiometry N [2]: 3
